Measured values: patent US20070099199A1 (published 2007)
Where “and” joins values, the source holds several entries; their conditions need not be identical. Equal values may be shown once.

B1: TIP-TIP-IgG fusion protein (two copies of the TIP-1 PDZ domain fused to the hIgG constant region) (Fc fusion)
chain: QRVEIHKLRQGENLILGFSIGGGIDQDPSQNPFSEDKTDKGIYVTRVSEGGPAEIAGLQIGDKIMQVNGWDMTMVTHDQARKRLTKRSEEVVRLLVTRQSLQKQRVEIHKLRQGENLILGFSIGGGIDQDPSQNPFSEDKTDKGIYVTRVSEGGPAEIAGLQIGDKIMQVNGWDMTMVTHDQARKRLTKRSEEVVRLLVTRQSLQK
notes: domain: PDZ domain; not shown: hIgG constant region of the CD5gamma or PEAK10 vector

What follows are molecules tested against HPV16 E6 C-terminal PDZ ligand (PL) peptide, biotinylated (human papillomavirus type 16) (UniProt P03126) (assay: Matrix/G assay ELISA; E6 peptide titrated on GST-PDZ).

| Molecule | EC50 [nM] |
| --- | --- |
| GST-Magi3 PDZ domain 1 (from UniProt Q5TCQ9 18-106) | 310 |
| GST-SAST2 PDZ domain 1 | 1200 |

Each molecule was assayed against HPV E6 #16 PDZ ligand peptide (C-terminal peptide of the E6 protein of HPV 16) (HPV 16) (UniProt P03126) (assay: G assay ELISA, immobilised GST-PDZ, biotin peptide 10 uM).

| Molecule | Ave OD | OD S/N (ratio to GST-only well) |
| --- | --- | --- |
| GST-INADL PDZ domain 3 | 0.485 A450 nm | 1.86 |
| GST-KIAA1526 #126.1 PDZ domain 2 | 0.463 A450 nm | 1.87 |
| GST-MAGI 1 PDZ domain 5 | 0.541 A450 nm | 3.12 |
| GST-NSP #268.2 PDZ domain 1 | 0.724 A450 nm | 2.58 |
| GST-NeDLG PDZ domain 1 | 0.516 A450 nm | 1.98 |
| GST-PDZ-73 PDZ domain 2 | 0.561 A450 nm | 1.95 |
| GST-PDZK1 PDZ domain 3 | 0.5 A450 nm | 1.92 |
| GST-TAX IP 2 PDZ domain 1 | 0.508 A450 nm and 0.478 A450 nm | 2.37 and 2.48 |

Each molecule was assayed against HPV16 E6 C-terminal PDZ ligand (PL) peptide, biotinylated (human papillomavirus type 16) (UniProt P03126) (assay: G assay ELISA; immobilised GST-PDZ, biotin-peptide 10 uM).

| Molecule | Ave OD | OD S/N (ratio vs GST only) |
| --- | --- | --- |
| GST-AF6 PDZ domain 1 | 0.444 A450 nm | 1.8 |
| GST-DLG-6 PDZ domain 1, clone #333.1 | 0.349 A450 nm | 2.04 |
| GST-Densin 180 PDZ domain 1 | 0.42 A450 nm and 0.35 A450 nm | 1.96 and 1.82 |
| GST-EZRIN Binding Protein 50 PDZ domain 1, clone #341.1 | 0.43 A450 nm | 1.65 |
| GST-MAGI1 PDZ domain 5 | 0.432 A450 nm | 1.77 |
| GST-Magi2 PDZ domain 3 (from UniProt Q86UL8 774-865) | 0.416 A450 nm and 0.359 A450 nm | 1.98 and 1.65 |
| GST-NSP PDZ domain 1, clone #42.5 | 0.416 A450 nm | 1.95 |
| GST-PAR3 PDZ domain 3, clone #278.1 | 0.352 A450 nm | 1.8 |

These molecules were tested against HPV16 E6 C-terminal PDZ ligand (PL) peptide, biotinylated (human papillomavirus type 16) (UniProt P03126) (assay: G assay ELISA; E6 PL peptide titrated on constant GST-PDZ).

| Molecule | EC50 [nM] |
| --- | --- |
| GST-Magi3 PDZ domain 1 (from UniProt Q5TCQ9 18-106) | 310 |
| GST-SAST2 PDZ domain 1 | 1200 |

The molecules below were run against T1, GST-HPV11E6 fusion protein (full length E6 of HPV11) (human papillomavirus 11, UniProt P04019 1-150) (assay: modified ELISA: GST-E6 coated at 5 ug/ml, TIP-TIP-IgG supernatant, anti-hIgG-HRP).
T1 construct: domain: full length protein

| Molecule | binding result |
| --- | --- |
| B1 | no binding |
